Here are results for one molecule from patent US11058644 (WISCONSIN ALUMNI RESEARCH FOUNDATION, dated 2021).

The target of this test is T1, epidermal growth factor receptor (EGFR) (UniProt P00533 25-1210, limits assumed).
T1 construct: whole, on cells; Endogenous receptor on MDA-MB-468 cells
In words: blocking of Cy5-NP uptake on MDA-MB-468 cells by 2 uM free GE11, fluorescence microscopy. Here is the method:
Cellular Uptake. The cellular uptake behaviors of the NPs in MDA-MB-468 TNBC cell lines were analyzed using a fluorescence microscope based on the Cy5 dye conjugated on the NPs. Cells were seeded (1×10^5 cells/ml) onto 8-well high-optical-quality plates and grown overnight. Cells were treated with either non-targeted NPs, targeted NPs, or targeted NPs with free GE11 peptide (2 µM; blocking assay) at an NP concentration of 100 µg/ml. After 2 h incubation, cells were washed with PBS twice, fixed with 4% PFA, and stained with DAPI for 4 h. Then the cells were mounted with Prolong Gold anti-fade reagent. The cellular uptake was observed using a fluorescence microscope (Nikon, Melville, N.Y.). Digital monochromatic images were acquired using NIS-Elements BR Software.
In Vitro Cellular Uptake. EGFR is overexpressed in many common types of cancer. Here, an EGFR targeting peptide, GE11, was used as an active-tumor-targeting ligand to enhance cellular uptake. MDA-MB-468, a TNBC cell line that overexpresses EGFR, was used as the model cell line. Cells were incubated with either non-targeted (i.e., NPs without GE11 conjugation) or targeted (i.e., GE11 conjugated) NPs for 2 h. Cells without any treatment were used as a negative control. Cy5 was conjugated onto the NPs. Fluorescence imaging analysis was performed to compare cellular uptake. […]

B1: GE11 peptide (YHWYGYTPQNVIGGGGC) (peptide)
peptide: YHWYGYTPQNVIGGGGC
notes: also called free GE11; EGFR targeting peptide
On to B1, for which the binding result was “binds”.
